Data taken from US20220242974A1 (QURE BIOTECHNOLOGY SHANGHAI, published 2022).

Target: PD-L1-his fusion protein (Homo sapiens (Human), UniProt Q9NZQ7 19-238)
Assay: ELISA, PD-L1-his coated, culture supernatant of the clone

Sequence of PD-L1-his fusion protein (Q9NZQ7 other isoform, or with tags, fused parts or gaps limits assumed): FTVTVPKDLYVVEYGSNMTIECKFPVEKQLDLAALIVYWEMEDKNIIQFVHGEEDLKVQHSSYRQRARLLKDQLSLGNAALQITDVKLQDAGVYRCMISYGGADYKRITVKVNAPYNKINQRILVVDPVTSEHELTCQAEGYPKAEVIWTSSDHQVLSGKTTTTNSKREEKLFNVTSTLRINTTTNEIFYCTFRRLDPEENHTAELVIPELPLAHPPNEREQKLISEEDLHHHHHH

Binder | binding result
QP1125 nanobody (VHH, as m59) VHH: QVQLVESGGGLVQPGGSLRLSCTAPGFTDKTCAMAWYRQVAGIEREWVSSISTLGTTNYASSVKGRFTISKDNAKDTVYLQMNNLKPEDTAMYVCKTFSCRNRGGSYLPDTWGQGTQVTVSS | binds
QP1128 nanobody (VHH, as m59) VHH: QVQLVESGGGSVQSGGSLRLSCAASGYTASAYYMAWFRQNSRKQREGVAAINRDGDTKYADSVKGRFTISRDDAKNTLYLQMNSLKPEDTAVYYCAASDWSRLYKIYWLDDNYYVRWGQGTQVTVSS | binds
QP1127 nanobody (VHH, as m59) VHH: QVQLVESGGGSVQSGGSLTLSCAISGYAYATYSMAWFRQAHGKEREGVAAINSDGHTTYVDSVKGRFTISRDNTNKNSYTLTLTMNNLNPEDTAMYYCAATSQLGFWAQKLWEAIRDGTWSPSTTDFGFWGRGTQVTVSS | binds
